Patent US20210292396A1
Positions count from the first letter of the chain named.

Columns and labels:
Test in all cases: cell-based or functional assay
[1] = target: Env of HIV isolate TZA125.17 (clade C) (HIV)
[2] = target: Env of HIV isolate Q168.a2 (clade AD) (HIV)
[3] = target: Env of HIV isolate ZM135.10a (clade C) (HIV)
[4] = target: HIV Env of isolate CNE31 (HIV)
[5] = target: HIV Env of isolate CAP244.D3 (HIV)
[6] = target: Env of HIV isolate CH181.12 (clade BC) (HIV)
[7] = target: Env of HIV isolate 6322.v4.c1 (clade C) (HIV)
[8] = target: HIV Env of isolate 57128.vrc15 (HIV)
[9] = target: Env of HIV isolate CNE53 (clade C in Table 7) (HIV)
[10] = target: Env of HIV isolate 928-28 (clade AG) (HIV)
[11] = target: HIV Env of isolate 6785.v5.c14 (HIV)
[12] = target: HIV Env of isolate DU123.06 (HIV)
[13] = target: HIV Env of isolate A03349M1.vrc4a (HIV)
[14] = target: Env of HIV isolate X1193.c1 (clade G) (HIV)
[15] = target: Env of HIV isolate Q842.d12 (clade A) (HIV)
[16] = target: Env of HIV isolate CNE5 (clade AE) (HIV)
[17] = target: Env of HIV isolate 246-F3.C10.2 (clade AC) (HIV)
[18] = target: Env of HIV isolate MW965.26 (clade C) (HIV)
[19] = target: HIV Env of isolate ZM55.28a (HIV)
[20] = target: HIV Env of isolate 3817.v2.c59 (HIV)
[21] = target: HIV Env of isolate 0013095-2.11 (HIV)
[22] = target: HIV Env of isolate CNE58 (HIV)
[23] = target: Env of HIV isolate NKU3006.ec1 (clade D) (HIV)
[24] = target: Env of HIV isolate R2184.c4 (clade AE) (HIV)
[25] = target: Env of HIV isolate MB201.A1 (clade A) (HIV)
[26] = target: HIV Env of isolate ZM176.66 (HIV)
[27] = target: Env of HIV isolate T266-60 (clade AG) (HIV)
[28] = target: Env of HIV isolate 6785.v5.c14 (clade C) (HIV)
[29] = target: HIV Env of isolate 6838.v1.c35 (HIV)
[30] = target: Env of HIV isolate CAP244.D3 (clade C) (HIV)
[31] = target: Env of HIV isolate QH209.14M.A2 (clade A) (HIV)
[32] = target: Env of HIV isolate 6545.v4.c1 (clade AC) (HIV)
[33] = target: Env of HIV isolate Q769.h5 (clade A) (HIV)
[34] = target: Env of HIV isolate T251-18 (clade AG) (HIV)
[35] = target: HIV Env of isolate 3337.v2.c6 (HIV)
[36] = target: Env of HIV isolate CNE20 (clade BC) (HIV)
[37] = target: HIV Env of isolate 3016.v5.c45 (HIV)
[38] = target: Env of HIV isolate T280-5 (clade AG) (HIV)
[39] = target: Env of HIV isolate CH038.12 (clade BC) (HIV)
[40] = target: HIV Env of isolate TZBD.02 (HIV)
[41] = target: Env of HIV isolate CH070.1 (clade BC) (HIV)
[42] = target: Env of HIV isolate 6535.3 (clade B) (HIV)
[43] = target: Env of HIV isolate QH0515.01 (clade B) (HIV)
[44] = target: Env of HIV isolate CNE30 (clade C in Table 7) (HIV)
[45] = target: HIV Env of isolate 25925-2.22 (HIV)
[46] = target: HIV Env of isolate 3168.v4.c10 (HIV)
[47] = target: Env of HIV isolate 288.38 (clade C) (HIV)
[48] = target: Env of HIV isolate BJOX002000.03.2 (clade BC) (HIV)
[49] = target: Env of HIV isolate ZA012.29 (clade C) (HIV)

B1: ePGT121.18 (ePGT121.18.H1 VH and ePGT121.17.L1 VL) (antibody, V domains shown)
VH: QMQLQESGPGLVKPGETLSLTCSVSGASISSSYWSWLRETPGKGLEWIGYTHHSGDTNYAPSLKSRVHLGLHPSKNQVSLSLTSVTAADTAVYYCARTLHGRRIYGVVAFNEYYTYFYWPTWGKGTQVTVSS
VL: SDISVAPGETVRITCGGESIGSRAVQWYQHRPGQAPRLIIYNNQDRPPGIPERFSGSPDIDFGTTATLTISNVEAGDEATYYCHIWDSRRPTNWELGPGTTLTVL
IC50, pseudovirus neutralization [1]: 0.028 µg/mL | IC50, pseudovirus neutralization [2]: 2.93 µg/mL | IC50, pseudovirus neutralization [3]: 0.026 µg/mL | IC80, pseudovirus neutralization (M1) [4]: 0.049 µg/mL | IC80, pseudovirus neutralization (M2) [4]: 0.078 µg/mL | IC80, pseudovirus neutralization (M1) [5]: > 50 µg/mL | IC80, pseudovirus neutralization (M2) [5]: > 50 µg/mL | IC50, pseudovirus neutralization [6]: 0.001 µg/mL | IC50, pseudovirus neutralization [7]: > 50 µg/mL | IC80, pseudovirus neutralization (M1) [8]: 0.009 µg/mL | IC80, pseudovirus neutralization (M2) [8]: 0.01 µg/mL | IC50, pseudovirus neutralization [9]: 0.003 µg/mL | IC50, pseudovirus neutralization [10]: 0.076 µg/mL | IC80, pseudovirus neutralization (M1) [11]: 0.006 µg/mL | IC80, pseudovirus neutralization (M2) [11]: 0.006 µg/mL | IC80, pseudovirus neutralization (M1) [12]: 0.006 µg/mL | IC80, pseudovirus neutralization (M2) [12]: 0.005 µg/mL | IC80, pseudovirus neutralization (M1) [13]: 0.007 µg/mL | IC80, pseudovirus neutralization (M2) [13]: 0.011 µg/mL | IC50, pseudovirus neutralization [14]: 0.002 µg/mL | IC50, pseudovirus neutralization [15]: 0.002 µg/mL | IC50, pseudovirus neutralization [16]: 7.18 µg/mL | IC50, pseudovirus neutralization [17]: 4.8 µg/mL | IC50, pseudovirus neutralization [18]: 0.003 µg/mL | IC80, pseudovirus neutralization (M1) [19]: 0.014 µg/mL | IC80, pseudovirus neutralization (M2) [19]: 0.014 µg/mL | IC80, pseudovirus neutralization (M1) [20]: 2.58 µg/mL | IC80, pseudovirus neutralization (M2) [20]: 6.79 µg/mL | IC80, pseudovirus neutralization (M1) [21]: 4.21 µg/mL | IC80, pseudovirus neutralization (M2) [21]: 2.16 µg/mL | IC80, pseudovirus neutralization (M1) [22]: 0.039 µg/mL | IC80, pseudovirus neutralization (M2) [22]: 0.033 µg/mL | IC50, pseudovirus neutralization [23]: > 50 µg/mL | IC50, pseudovirus neutralization [24]: > 50 µg/mL | IC50, pseudovirus neutralization [25]: 0.001 µg/mL | IC80, pseudovirus neutralization (M1) [26]: 0.091 µg/mL | IC80, pseudovirus neutralization (M2) [26]: 0.106 µg/mL | IC50, pseudovirus neutralization [27]: 0.003 µg/mL | IC50, pseudovirus neutralization [28]: 0.002 µg/mL | IC80, pseudovirus neutralization (M1) [29]: 2.59 µg/mL | IC80, pseudovirus neutralization (M2) [29]: 13.4 µg/mL | IC50, pseudovirus neutralization [30]: 21.2 µg/mL | IC50, pseudovirus neutralization [31]: > 50 µg/mL | IC50, pseudovirus neutralization [32]: > 50 µg/mL | IC50, pseudovirus neutralization [33]: > 50 µg/mL | IC50, pseudovirus neutralization [34]: 0.019 µg/mL | IC80, pseudovirus neutralization (M1) [35]: 1.25 µg/mL | IC80, pseudovirus neutralization (M2) [35]: 1.43 µg/mL | IC50, pseudovirus neutralization [36]: 0.001 µg/mL | IC80, pseudovirus neutralization (M1) [37]: > 50 µg/mL | IC80, pseudovirus neutralization (M2) [37]: > 50 µg/mL | IC50, pseudovirus neutralization [38]: 0.002 µg/mL | IC50, pseudovirus neutralization [39]: 0.0008 µg/mL | IC80, pseudovirus neutralization (M1) [40]: 0.004 µg/mL | IC80, pseudovirus neutralization (M2) [40]: 0.006 µg/mL | IC50, pseudovirus neutralization [41]: 0.0008 µg/mL | IC50, pseudovirus neutralization [42]: 0.001 µg/mL | IC50, pseudovirus neutralization [43]: 0.007 µg/mL | IC50, pseudovirus neutralization [44]: 0.005 µg/mL | IC80, pseudovirus neutralization (M1) [45]: 0.008 µg/mL | IC80, pseudovirus neutralization (M2) [45]: 0.01 µg/mL | IC80, pseudovirus neutralization (M1) [46]: 0.034 µg/mL | IC80, pseudovirus neutralization (M2) [46]: 0.045 µg/mL | IC50, pseudovirus neutralization [47]: 0.0008 µg/mL | IC50, pseudovirus neutralization [48]: 0.002 µg/mL | IC50, pseudovirus neutralization [49]: 0.002 µg/mL

B2: ePGT121.18.17 (ePGT121.18.H17 VH and ePGT121.17.L1 VL) (antibody, V domains shown)
VH: B1 VH with H68T, L69I, H72D
VL: B1 VL
IC50, pseudovirus neutralization [1]: 0.18 µg/mL | IC50, pseudovirus neutralization [2]: 1.52 µg/mL | IC50, pseudovirus neutralization [3]: 0.145 µg/mL | IC80, pseudovirus neutralization [4]: 0.25 µg/mL | IC80, pseudovirus neutralization [5]: > 50 µg/mL | IC50, pseudovirus neutralization [6]: 0.004 µg/mL | IC50, pseudovirus neutralization [7]: > 50 µg/mL | IC80, pseudovirus neutralization [8]: 0.038 µg/mL | IC50, pseudovirus neutralization [9]: 0.006 µg/mL | IC50, pseudovirus neutralization [10]: 0.462 µg/mL | IC80, pseudovirus neutralization [11]: 0.015 µg/mL | IC80, pseudovirus neutralization [12]: 0.013 µg/mL | IC80, pseudovirus neutralization [13]: 0.02 µg/mL | IC50, pseudovirus neutralization [14]: 0.005 µg/mL | IC50, pseudovirus neutralization [15]: 0.007 µg/mL | IC50, pseudovirus neutralization [16]: 47 µg/mL | IC50, pseudovirus neutralization [17]: 18.5 µg/mL | IC50, pseudovirus neutralization [18]: 0.004 µg/mL | IC80, pseudovirus neutralization [19]: 0.029 µg/mL | IC80, pseudovirus neutralization [20]: 17.9 µg/mL | IC80, pseudovirus neutralization [21]: 13.4 µg/mL | IC80, pseudovirus neutralization [22]: 0.195 µg/mL | IC50, pseudovirus neutralization [23]: > 50 µg/mL | IC50, pseudovirus neutralization [24]: > 50 µg/mL | IC50, pseudovirus neutralization [25]: 0.004 µg/mL | IC80, pseudovirus neutralization [26]: 0.454 µg/mL | IC50, pseudovirus neutralization [27]: 0.014 µg/mL | IC50, pseudovirus neutralization [28]: 0.005 µg/mL | IC80, pseudovirus neutralization [29]: 4.34 µg/mL | IC50, pseudovirus neutralization [30]: > 50 µg/mL | IC50, pseudovirus neutralization [31]: > 50 µg/mL | IC50, pseudovirus neutralization [32]: > 50 µg/mL | IC50, pseudovirus neutralization [33]: > 50 µg/mL | IC50, pseudovirus neutralization [34]: 0.041 µg/mL | IC80, pseudovirus neutralization [35]: 1.34 µg/mL | IC50, pseudovirus neutralization [36]: 0.002 µg/mL | IC80, pseudovirus neutralization [37]: > 50 µg/mL | IC50, pseudovirus neutralization [38]: 0.006 µg/mL | IC50, pseudovirus neutralization [39]: 0.002 µg/mL | IC80, pseudovirus neutralization [40]: 0.013 µg/mL | IC50, pseudovirus neutralization [41]: 0.003 µg/mL | IC50, pseudovirus neutralization [42]: 0.002 µg/mL | IC50, pseudovirus neutralization [43]: 0.035 µg/mL | IC50, pseudovirus neutralization [44]: 0.018 µg/mL | IC80, pseudovirus neutralization [45]: 0.021 µg/mL | IC80, pseudovirus neutralization [46]: 0.171 µg/mL | IC50, pseudovirus neutralization [47]: 0.002 µg/mL | IC50, pseudovirus neutralization [48]: 0.004 µg/mL | IC50, pseudovirus neutralization [49]: 0.005 µg/mL

B3: ePGT121.15.H2.L1 (antibody, V domains shown)
VH: B1 VH with Y113W, Y114F, P120E, T121V
VL: B1 VL with T14S, P32A, R37K, S71T, E95V, L96F, P98G
neutralization (Table 6 value) [20]: 0.00328 | neutralization (Table 6 value) [22]: 0.00464
